Laboratory results: patent US20250129136A1

Columns and labels:
hPBMC = assay: flow cytometry, percent of stained hPBMC against the concentration of Alexa647-labeled hDsg3-hFc
[1] = molecular target: AK23 antibody (anti-mouse Dsg3, from AK23 hybridoma); assay: cell-based or functional assay
[2] = molecular target: F779 patient-derived anti-Dsg3 antibody on Nalm-6 cells; assay: cell-based or functional assay
[3] = molecular target: PVB28 patient-derived anti-Dsg3 antibody on Nalm-6 cells; assay: cell-based or functional assay
[4] = molecular target: F779 patient-derived anti-Dsg3 antibody on Nalm-6 cells; assay: flow cytometry on F779 cells, titration of Alexa647-labeled protein
[5] = molecular target: Fcγ receptor of mouse macrophages (RAW264.7 cells) (mouse); assay: flow cytometry on Raw macrophage cells, titration of labeled protein
[6] = molecular target: Fcγ receptor of mouse macrophages (RAW264.7 cells) (mouse); assay: flow cytometry dot plot of RAW264.7 macrophage cells, 10 nM mDsg3-IgG2a-Alexa647; the same quadrant at 0 nM prints 1.28
[7] = molecular target: F779 patient-derived anti-Dsg3 antibody on Nalm-6 cells; assay: flow cytometry, F779 cells incubated with varying concentrations of mDsg3-mFc (IgG2a), percent of stained F779 cells [top]

Molecule	EC50 (hPBMC)	killing of AK23 target cells co-cultured with RAW264.7 macrophages, 10 nM construct, 24 hours [1]	killing of F779 target cells co-cultured with RAW264.7 macrophages, 10 nM construct, 24 hours [2]	killing of F779 target cells co-cultured with RAW264.7 macrophages, 10 nM construct, 48 hours [2]	killing of F779 target cells with RAW264.7 macrophages (Effector:Target 10:1), 1 nM construct, 24 hours [2]	killing of F779 target cells with RAW264.7 macrophages (Effector:Target 10:1), 1 nM construct, 48 hours [2]	killing of targeted cells with RAW264.7 macrophages at 10 and 100 nM construct [2]	killing of targeted cells with RAW264.7 macrophages at 10 and 100 nM construct [3]	EC50 [4]	EC50 [5]	number in the Alexa647-positive upper right quadrant at 10 nM (percent of cells) [6]	EC50 [7]
hDsg3(EC13)-hFc (Fc fusion)	1.7 nM	–	–	–	–	–	–	–	–	–	–	–
mDsg3(EC13)-mFc (Fc fusion, Alexa Fluor 647 installed site-specifically at the C-terminus by sortase (Gly3-Alexa647 on the LPETG motif) for the flow cytometry stainings) EWVKFAKPCREREDNSRRNPIAKITSDFQKNQKITYRISGVGIDQPPFGIFVVDPNNGDINITAIVDREETPSFLITCRALNALGQDVERPLILTVKILDVNDNPPIFSQTIFKGEIEENSASNSLVMILNATDADEPNHMNSKIAFKIVSQEPAGMSMFLISRNTGEVRTLTSSLDREQISSYHLVVSGADNDGTGLSTQCECSIKIKDVNDNFPVLRESQYSARIEENTLNAELLRFQVTDWDEEYTDNWLAVYFFTSGNEGNWFEIETDPRTNEGILKVVKALDYEQVQSMQFSIAVRNKAEFHQSVISQYRVQSTPVTIQVIDVREGISGGGGSGGSEPRGPTIKPCPPCKCPAPNLLGGPSVFIFPPKIKDVLMISLSPIVTCVVVDVSEDDPDVQISWFVNNVEVHTAQTQTHREDYNSTLRVVSALPIQHQDWMSGKEFKCKVNNKDLPAPIERTISKPKGSVRAPQVYVLPPPEEEMTKKQVTLTCMVTDFMPEDIYVEWTNNGKTELNYKNTEPVLDSDGSYFMYSKLRVEKKNWVERNSYSCSVVHEGLHNHHTTKSFSRTPGKGGGGSGGGGSDYKDDDDKLPETGGHHHHHH	–	60%	65%	94%	60%	80%	90%	90%	2.3 nM	2.3 nM	98.6%	2.6 nM
